Assay results as given in patent publication US20260201003A1.
Blank lines part the entries; values can stand above or below the molecule they belong to.

Assays:
FcRn = FcRn (UniProt P55899); test: Biacore; FcRn directly immobilized; response at end of injection normalised to the standard
FcγRI [1] = molecular target: FcγRI (UniProt P12314); test: Biacore; FcγR captured through anti-His antibody; response at end of injection normalised to the standard
FcγRI [2] = test: as above
FcγRIIIa V158 = FcγRIIIa V158 (UniProt P08637); test: as above
Flt3 receptor (human) = Flt3 receptor (human) (UniProt P36888); test: cell-based or functional assay
Chain of Flt3 receptor (human) (P36888 27-993): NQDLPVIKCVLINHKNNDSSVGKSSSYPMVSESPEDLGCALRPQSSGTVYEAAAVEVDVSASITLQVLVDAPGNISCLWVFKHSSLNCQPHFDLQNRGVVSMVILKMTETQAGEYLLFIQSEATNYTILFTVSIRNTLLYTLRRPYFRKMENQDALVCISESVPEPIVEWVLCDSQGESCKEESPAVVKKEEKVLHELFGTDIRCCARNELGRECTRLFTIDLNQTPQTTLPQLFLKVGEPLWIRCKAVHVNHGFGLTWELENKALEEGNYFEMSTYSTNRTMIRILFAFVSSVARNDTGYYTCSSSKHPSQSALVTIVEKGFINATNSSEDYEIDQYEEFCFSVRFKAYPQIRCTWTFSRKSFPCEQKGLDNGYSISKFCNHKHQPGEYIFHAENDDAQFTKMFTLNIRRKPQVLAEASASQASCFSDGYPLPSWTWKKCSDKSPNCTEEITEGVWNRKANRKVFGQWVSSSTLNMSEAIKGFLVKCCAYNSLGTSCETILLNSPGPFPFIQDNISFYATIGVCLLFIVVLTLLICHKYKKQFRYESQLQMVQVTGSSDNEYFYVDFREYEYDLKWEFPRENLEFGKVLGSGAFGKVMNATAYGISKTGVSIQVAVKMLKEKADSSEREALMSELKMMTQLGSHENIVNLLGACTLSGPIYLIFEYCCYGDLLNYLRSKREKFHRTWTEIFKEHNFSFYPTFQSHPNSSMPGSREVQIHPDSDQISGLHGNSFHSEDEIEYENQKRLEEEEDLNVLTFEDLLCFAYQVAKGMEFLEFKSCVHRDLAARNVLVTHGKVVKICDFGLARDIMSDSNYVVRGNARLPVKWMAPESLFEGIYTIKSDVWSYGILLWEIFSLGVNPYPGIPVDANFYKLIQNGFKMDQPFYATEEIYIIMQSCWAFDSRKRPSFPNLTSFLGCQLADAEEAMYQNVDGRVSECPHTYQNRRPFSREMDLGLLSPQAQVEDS

Chain of FcRn (P55899 24-297 limits assumed, form in doubt): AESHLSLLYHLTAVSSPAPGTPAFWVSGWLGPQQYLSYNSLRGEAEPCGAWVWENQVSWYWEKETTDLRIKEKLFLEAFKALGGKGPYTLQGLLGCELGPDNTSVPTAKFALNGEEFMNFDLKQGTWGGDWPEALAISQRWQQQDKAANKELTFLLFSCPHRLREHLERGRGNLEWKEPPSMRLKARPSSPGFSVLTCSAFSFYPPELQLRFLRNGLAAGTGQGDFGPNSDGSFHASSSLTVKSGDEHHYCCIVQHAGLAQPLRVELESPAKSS
Chain of FcγRI (UniProt P12314) (P12314 16-288 limits assumed): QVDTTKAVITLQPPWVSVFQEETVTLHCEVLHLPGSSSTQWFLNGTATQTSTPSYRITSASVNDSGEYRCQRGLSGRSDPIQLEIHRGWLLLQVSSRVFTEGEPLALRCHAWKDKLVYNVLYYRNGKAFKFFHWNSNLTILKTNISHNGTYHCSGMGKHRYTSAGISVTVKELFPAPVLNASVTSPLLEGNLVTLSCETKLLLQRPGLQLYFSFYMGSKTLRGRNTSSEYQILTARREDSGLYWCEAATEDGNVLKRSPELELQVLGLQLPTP
Chain of FcγRIIIa V158 (P08637 17-208 F176V limits assumed): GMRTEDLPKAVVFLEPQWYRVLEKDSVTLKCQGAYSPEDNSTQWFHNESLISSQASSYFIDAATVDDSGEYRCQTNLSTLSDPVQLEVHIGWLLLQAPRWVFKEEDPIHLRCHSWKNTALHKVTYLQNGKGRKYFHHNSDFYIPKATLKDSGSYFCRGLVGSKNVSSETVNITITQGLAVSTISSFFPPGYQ

Molecule: anti-CD20 antibody (ocrelizumab variable domains) with IgG1 LALAPG constant region
relative binding level (%) at 10 ug/ml (FcRn): 95.9%
relative binding level (%) at 10 ug/ml (FcγRI [1]): 1.74%
relative binding level (%) at 10 ug/ml (FcγRI [2]): -0.34%
relative binding level (%) at 10 ug/ml (FcγRIIIa V158): 1.36%

B1: anti-CD20 antibody (ocrelizumab variable domains) with IgG2 wildtype constant region (antibody, part only; not given: ocrelizumab variable domains, not shown: another chain or arm of the molecule)
constant: ASTKGPSVFPLAPCSRSTSESTAALGCLVKDYFPEPVTVSWNSGALTSGVHTFPAVLQSSGLYSLSSVVTVPSSNFGTQTYTCNVDHKPSNTKVDKTVERKCCVECPPCPAPPVAGPSVFLFPPKPKDTLMISRTPEVTCVVVDVSHEDPEVQFNWYVDGVEVHNAKTKPREEQFNSTFRVVSVLTVVHQDWLNGKEYKCKVSNKGLPAPIEKTISKTKGQPREPQVYTLPPSREEMTKNQVSLTCLVKGFYPSDIAVEWESNGQPENNYKTTPPMLDSDGSFFLYSKLTVDKSRWQQGNVFSCSVMHEALHNHYTQKSLSLSPGK
relative binding level (%) at 10 ug/ml (FcRn): 99.4%
relative binding level (%) at 10 ug/ml (FcγRI [1]): 2.43%
relative binding level (%) at 10 ug/ml (FcγRI [2]): 179%
relative binding level (%) at 10 ug/ml (FcγRIIIa V158): 3.85%

Other lines, results leading:

relative binding level (%) at 10 ug/ml (FcRn): 86.7%
relative binding level (%) at 10 ug/ml (FcγRI [1]): 4.5%
relative binding level (%) at 10 ug/ml (FcγRI [2]): 0.06%
relative binding level (%) at 10 ug/ml (FcγRIIIa V158): 2.12%
Molecule: anti-CD20 antibody (ocrelizumab variable domains) with IgG1 NG constant region

relative binding level (%) at 10 ug/ml (FcRn): 66.5%
relative binding level (%) at 10 ug/ml (FcγRI [1]): 70.6%
relative binding level (%) at 10 ug/ml (FcγRI [2]): 14.8%
relative binding level (%) at 10 ug/ml (FcγRIIIa V158): 3.41%
Molecule: anti-CD20 antibody (ocrelizumab variable domains) with IgG4 SP constant region

EC50 potency, proliferation of OCI-AML5 cells (Cell Titer Glo, 7 days) (Flt3 receptor (human)): 2.3 pM
Molecule: gCDX-301 (from UniProt P49771 27-179) (ligand)
